Among the data in the supplement of paper PMC10567573 are protein stability index values, retold here.

± gives the standard deviation.

The series in a line: protein stability index of a GFP-peptide fusion (GPS, HEK-293T) (PSI 1-6); higher = more stable. The conditions noted are these: c terminus: a fixed tail appended.
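Note: 24-mer peptide tiles fused after GFP, lentivirally expressed, FACS-sorted into six equal bins by GFP/DsRed ratio, decoded by Illumina sequencing, PSI is the read-weighted mean bin number.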

As to GSCEDEPMDSTMDDAVAGDFALIN [ATE1], the protein stability index runs as follows: (treatment: DMSO) 5.25 ± 0.25; (treatment: MLN4924 1 uM, 8 h) 5.44 ± 0.16.
Consider RRDCDALMAGCIQEARERWNFDFV [CDKN1A], for which the protein stability index is, setting by setting: (treatment: DMSO) 2.06 ± 0.25; (treatment: MLN4924 1 uM, 8 h) 2.05 ± 0.19.
The matching figures for TECEPSELFQLQTYSLPPFLKAVL [CDS1]: 2.65 ± 0.22 and 2.56 ± 0.22.
The matching figures for GTLCIGAAAFSQCEEWSFFHAYYY [KCNK9]: 2.58 ± 0.53 and 2.9 ± 0.66.
For VNPWIIIGGVATVVCQPNEFIMPD [SEPHS2], in that order: 2.67 ± 0.38 and 3.05 ± 0.81.
In the case of PPAMPPPATHLSPALAPVPRNSCI [TRIM9], the protein stability index runs as follows: (treatment: DMSO) 4.39 ± 0.13; (treatment: MLN4924 1 uM, 8 h) 4.38 ± 0.17.
NLRKQLETLSGDRVRLDSELRNVQ [KRT71]: the protein stability index reads like this: (treatment: DMSO) 3.69 ± 0.08; (treatment: MLN4924 1 uM, 8 h) 3.74 ± 0.15.
Turning to LGHSPVLRNITNSQAPDGRRKSEA [CDC25B], the protein stability index reads like this: (treatment: DMSO) 3.77 ± 0.4; (treatment: MLN4924 1 uM, 8 h) 4.22 ± 0.48.
The matching figures for MIGLYEPELGSGAGPAGTGTPSLL [EMID1]: 3.89 ± 0.53 and 3.65 ± 0.71.
RAPLHSVGYTALVGSDAESWGWDL [SPSB4]: the protein stability index is, setting by setting: (treatment: DMSO) 2.81 ± 0.28; (treatment: MLN4924 1 uM, 8 h) 3.13 ± 0.17.
Regarding QIILENQKNFGLYVQEKRDGLKRR [RAD54B], the protein stability index reads like this: (treatment: DMSO) 2.41 ± 0.47; (treatment: MLN4924 1 uM, 8 h) 2.97 ± 0.32.
The matching figures for EDLAQKLNLEEDRIQIWFQNRRAK [HESX1]: 4.12 ± 0.55 and 4.11 ± 0.47.
For LLPIVPLSWLVWLLLLLLASLLPS [ADAMTS4], in that order: 3.04 ± 0.33 and 3.17 ± 0.51.
The matching figures for FIRCSLQCRDLVDEAKKFHLRPEL [KLHL12]: 2.67 ± 0.8 and 2.82 ± 1.4.
ITNQVVAQVDGAAMFAADPKKPIG [RAD51] displayed a protein stability index (treatment: DMSO) of 4.58 ± 0.11 and a protein stability index (treatment: MLN4924 1 uM, 8 h) of 4.51 ± 0.2.
Regarding GRDRNLAPDEKRSNVRWDHESVCK [LUC7L3], the protein stability index reads like this: (treatment: DMSO) 4.61 ± 0.41; (treatment: MLN4924 1 uM, 8 h) 4.55 ± 0.2.
For SFSEETEKKFEHFSGLLNNQLSPQ [LOXL2], in that order: 4.09 ± 0.47 and 4.56 ± 0.18.
For RRTRPRHHHGRSRPDRSSQGGSLP [CHGB], in that order: 4.93 ± 0.36 and 5.07 ± 0.23.
Turning to MDSDFSHAFQKELTCVICLNYLVD [TRIM43], the protein stability index is, setting by setting: (treatment: DMSO) 2.6 ± 0.39; (treatment: MLN4924 1 uM, 8 h) 2.53 ± 0.44.
For LTCDSSTSSSDDDEEVSGSSKTIT [C18orf25], in that order: 5.4 ± 0.26 and 5.46 ± 0.21.
For AAWQGHLPIVKLLAKQPGVSVNAQ [RIPK4], the protein stability index was found to be 2.57 ± 0.38 (treatment: DMSO) and 3.07 ± 0.61 (treatment: MLN4924 1 uM, 8 h).
In the case of QGRNSLWLSDWVTSYKVMVSNDSH [CPXM2], the protein stability index by setting is: (treatment: DMSO) 1.92 ± 0.25; (treatment: MLN4924 1 uM, 8 h) 2.47 ± 0.56.
For LFEEPEDPSNRSFFSEIISSVSDV [PPP2R2C], in that order: 4.24 ± 0.057 and 4.19 ± 0.19.
The matching figures for HGLPFLPGTSFKDSTKTAFHRSQT [EFHC1]: 3.53 ± 0.15 and 3.63 ± 0.087.
NKRAALQALKRKKRFEKQLTQIDG [CHMP4C]: the protein stability index is, setting by setting: (treatment: DMSO) 3.95 ± 0.42; (treatment: MLN4924 1 uM, 8 h) 3.9 ± 0.34.
For RNGQWSEPPKCLDPCVISQEIMEK [CFHR2], in that order: 4.24 ± 0.063 and 4.07 ± 0.24.
Consider FRCSVCSRQLLPGDEFSLREHELL [ISL2], for which the protein stability index (treatment: DMSO) came out at 2.39 ± 0.4 and the protein stability index (treatment: MLN4924 1 uM, 8 h) was 2.24 ± 0.59.
The matching figures for TIFEKENFIGRQWEISDDYPSLQA [CRYBA1]: 3.26 ± 0.29 and 3 ± 0.32.
As to LPFVLAAAVSRKKKRRMGTYSLVP [EHMT1], the protein stability index turned out to be 2.34 ± 0.26 (treatment: DMSO) and 2.27 ± 0.24 (treatment: MLN4924 1 uM, 8 h).
Consider VLPPIHAYGNRTECRNPQELESIR [FEM1B], for which the protein stability index runs as follows: (treatment: DMSO) 4.14 ± 0.28; (treatment: MLN4924 1 uM, 8 h) 4 ± 0.21.
Regarding LLCLLHFSIVSVAAHLALLLLCGT [RTN2], the protein stability index stood at 3.19 ± 0.65 (treatment: DMSO) and 3.33 ± 0.3 (treatment: MLN4924 1 uM, 8 h).
For IKNLYAFNLFCQKRFDESMQVFAK [VPS39], in that order: 2.19 ± 0.29 and 1.96 ± 0.21.
The matching figures for FRIILGDFDYNAIDNANRILGPAY [PKD2L1]: 2.74 ± 0.55 and 2.62 ± 0.55.
Turning to TNIRLPNVPSSSLPAQPNRKPGMS [CHMP4C], the protein stability index came to 4.66 ± 0.28 (treatment: DMSO) and 4.51 ± 0.45 (treatment: MLN4924 1 uM, 8 h).
RHQRTHTGEKPYQCNICGKCFSCN [ZNF263] showed a protein stability index (treatment: DMSO) of 4.08 ± 0.43 and a protein stability index (treatment: MLN4924 1 uM, 8 h) of 4.37 ± 0.3.
For MQVFAKLGTDPTHVMGLYPDLLPT [VPS39], the protein stability index was 2.16 ± 0.27 (treatment: DMSO) and 2.35 ± 0.25 (treatment: MLN4924 1 uM, 8 h).
Turning to NTEVPARNLYAYIQKLTQIETGEN [PTPRD], the protein stability index is, setting by setting: (treatment: DMSO) 3.39 ± 0.22; (treatment: MLN4924 1 uM, 8 h) 3.37 ± 0.37.
The matching figures for RELGPEELDELQAAFEEFDTDRDG [CABP4]: 5.63 ± 0.39 and 5.54 ± 0.35.
For RGPSPVVLGSQDALPIATAFTEYV [FCHO1], in that order: 3.14 ± 0.39 and 3.18 ± 0.3.
The matching figures for AGEAHMAADGETNGSCENSDASSH [EHMT1]: 5.55 ± 0.36 and 5.69 ± 0.15.
QCPYCQRRFNENAADRHINFCKEQ [ZC2HC1A]: the protein stability index was 4.91 ± 0.38 (treatment: DMSO) and 5.09 ± 0.2 (treatment: MLN4924 1 uM, 8 h).
VNQDILENKESWDKILALVPETIH [PRIM1]: the protein stability index is, setting by setting: (treatment: DMSO) 3.16 ± 0.19; (treatment: MLN4924 1 uM, 8 h) 2.85 ± 0.32.
The matching figures for LGVFLDYEAGVLAFYDVTGGMSHL [TRIM14]: 2.83 ± 0.5 and 2.98 ± 0.82.
The matching figures for LYFATLRNRPKSTVNTHYFSIDEE [CDC14A]: 2.11 ± 0.17 and 2.15 ± 0.32.
In the case of FYFKLTDLYKKVKKNSSPPLSLYG [CRY1], the protein stability index was 2.7 ± 0.51 (treatment: DMSO) and 2.69 ± 0.49 (treatment: MLN4924 1 uM, 8 h).
The matching figures for TASFRTSKYLLEEWFQNCYARYHQ [TEKT4]: 1.89 ± 0.21 and 2.22 ± 0.24.
The matching figures for ILAETGIRKTVKRLRKHQHVGDFA [ELOA2]: 2.78 ± 0.23 and 3.16 ± 0.49.
As to NESRYMIYEFWENSSVWNSHLQTN [NECAB1], the protein stability index was 2.26 ± 0.26 (treatment: DMSO) and 2.24 ± 0.23 (treatment: MLN4924 1 uM, 8 h).
QQLDLRWNNVGLLGGRALMNCLPS [LRRC45]: the protein stability index runs as follows: (treatment: DMSO) 2.65 ± 0.2; (treatment: MLN4924 1 uM, 8 h) 2.48 ± 0.2.
Take KSWHDMQTTTAYKKTHETLSHAGQ [TPD52L1]: the protein stability index runs as follows: (treatment: DMSO) 4.01 ± 0.15; (treatment: MLN4924 1 uM, 8 h) 3.96 ± 0.18.
For EDMLWDDLLHGPECRSSVTSDSEG [PHTF1], the protein stability index reads like this: (treatment: DMSO) 5.07 ± 0.3; (treatment: MLN4924 1 uM, 8 h) 5.16 ± 0.16.
ALRKTGQYSGMLDCARRILAREGV [SLC25A25]: the protein stability index by setting is: (treatment: DMSO) 2.29 ± 0.18; (treatment: MLN4924 1 uM, 8 h) 2.27 ± 0.15.
